Results taken from US20110293511A1, “SPECIFIC BINDING PROTEINS AND USES THEREOF” (priority 2009, published 2011).
Values joined by “and” are separate entries in the source; they are usually repeats but may differ in a detail not shown here. Equal values may be shown once. “Also recorded” adds a separate entry of the source. Marks after values point to notes of the source that are not given here.

Key:
U87MG cells = assay: binding to cell lines by FACS; design: species or system human; conditions: parental U87MG
Protocol: (§1) Briefly, cells were labelled with the relevant antibody (10 μg/ml) followed by fluorescein-conjugated goat anti-mouse IgG (1:100 dilution; Calbiochem San Diego, Calif., USA; Becton-Dickinson PharMingen, San Diego, Calif., US) as described previously (Nishikawa et al., 1994). FACS data was obtained on a Coulter Epics Elite ESP by observing a minimum of 5,000 events and analyzed using EXPO (version 2) for Windows.
(§2) Stained cells were analyzed with a FACS Calibur using Cell Quest software (Becton-Dickinson PharMingen). […] 1. Mouse IgG2a or IgG2b was used as an isotype control.
(§3) Cell lines and antibodies were prepared as described in Example 1. […] Cells (1 3 10 6) were incubated with 5 μg/ml of the appropriate antibody or an isotype-matched negative control in PBS containing 1% HSA for 30 min at 4° C. After three washes with PBS/1% HSA, cells were incubated an additional 30 min at 4° C. with FTTC-coupled goat anti-mouse antibody (1:100 dilution; Calbiochem, San Diego, Calif.). After three subsequent washes, cells were analyzed on an Epics Elite ESP (Beckman Coulter, Hialeah, Fla.) by observing a minimum of 20,000 events and analyzed using EXPO (version 2) for Windows.

U87MG.wtEGFR cells = assay: binding to cell lines by FACS; design: species or system human
Protocol: as §1, §2, §3

HN5 and MDA-468 cells = assay: binding to cell lines by FACS; design: species or system human; conditions: HN5 and MDA-468, both cell lines
[1] = target: T1, sEGFR (recombinant extracellular domain of the wild-type EGFR) (Homo sapiens, UniProt P00533); assay: ELISA on sEGFR coated plates; assay type: binding
T1 construct: sEGFR is the recombinant extracellular domain (amino acids 1-621) of the wild-type EGFR); host or cells: CHO cells
Protocol: Two types of ELISA were used to determine the specificity of the antibodies. […] Growth Factors. 18, 11-29). Antibodies were added to wells in triplicate at increasing concentration in 2% HSA in phosphate-buffered saline (PBS).

denaturated sEGFR = target: T2, denaturated sEGFR (Homo sapiens, UniProt P00533); assay: BIAcore with immobilized sEGFR; assay type: binding
T2 construct: sEGFR is the recombinant extracellular domain (amino acids 1-621) of the wild-type EGFR); host or cells: CHO cells
Protocol: In a second set of BIAcore experiments, sEGFR was immobilized on a CM microsensor chip at a surface density of ˜4000RU. Serial dilutions of mAbs were tested for reactivity with sEGFR.

wtEGFR on A431 cells = target: T3, wtEGFR on A431 cells (Homo sapiens, UniProt P00533); assay: Scatchard analysis on A431 cells; assay type: binding
T3 construct: endogenous in cells; host or cells: A431 human squamous carcinoma cells

U87MG xenografts = assay: s.c. xenograft therapy study; assay type: in vivo, nude mice; conditions: 1 mg per injection
Protocol: (§4) Tumor cells (3×10^6) in […] of PBS were inoculated subcutaneously into both flanks of 4-6 week old female nude mice (Animal Research Centre, Western Australia, Australia). […] Treatment was continued for a total of 6 doses, 3 times per week for 2 weeks. In the established model, treatment was started when tumors had reached a mean volume of 65±6.42 mm^3 (U87MG.Δ2-7), 84±9.07 mm3 (U87MG), 73±7.5 mm^3 (U87MG.wtEGFR) or 201±19.09 mm^3 (A431 tumors). Tumor volume in mm^3 was determined using the formula […], where length was the longest axis and width the measurement at right angles to the length (Clark et al. (2000) Therapeutic efficacy of anti-Lewis (y) humanized 3S 193 radioimmunotherapy in a breast cancer model: enhanced activity when combined with Taxol chemotherapy. Clin. Cancer Res. 6, 3621-3628). Data was expressed as mean tumor volume±S.E. for each treatment group. Statistical analysis was performed at given time points using Student's t-test. Animals were euthanized when the xenografts reached an approximate volume of 1.5 cm^3 and the tumors excised for histological examination. This research project was approved by the Animal Ethics Committee of the Austin and Repatriation Medical Centre.

U87MG.wtEGFR xenografts = assay: s.c. xenograft therapy study; assay type: in vivo, nude mice; conditions: established model; day control animals were sacrificed; 1 mg injections
Protocol: as §4

[2] = system: panel of 12 different malignancies; assay: immunohistochemistry of tumor panel; assay type: binding, human
Protocol: Immunohistochemical analysis was performed using […] sections of fresh frozen tissue applied to histology slides and fixed for 10 minutes in cold acetone. Bound primary antibody was detected with biotinylated horse anti-mouse antibody followed by an avidin-biotin-complex reaction. Diaminobenzidine tetrahydrochloride (DAB) was used as chromogen. The extent of the immunohistochemical reactivity in tissues was estimated by light microscopy and graded according to the number of immunoreactive cells in 25% increments as follows:
The extent of de2-7 EGFR in other tumor types was examined using a panel of 12 different malignancies. […] This staining was strongly dependent on antibody concentration used and was considered nonspecific background reactivity.

[3] = system: U87MG.DK brain xenografts; assay: intracranial glioma xenograft treatment; assay type: in vivo, nude mice; conditions: i.p. day 0 through 14
[4] = system: U87MG.wtEGFR brain xenografts; assay: intracranial glioma xenograft treatment; assay type: in vivo, nude mice; conditions: i.p. day 0 through 14
DU145 xenografts = assay: s.c. xenograft therapy study; assay type: in vivo, nude mice; conditions: day 67; 1 mg i.p.; control 1145
DU145 cells = assay: FACS analysis; assay type: binding, human
Excerpt: Clearly, mAb806 and mAb175 can recognize only a small proportion of the EGFR on cells in the presence of an autocrine stimulation loop.

[5] = target: T4, denatured soluble domain of the EGFR (sEGFR) (Homo sapiens, UniProt P00533); assay: competition ELISA with biotinylated mAb806; assay type: binding; conditions: after unlabeled blocking antibody
T4 construct: sEGFR is the recombinant extracellular domain (amino acids 1-621) of the wild-type EGFR); host or cells: CHO cells
Protocol: Briefly, the denatured soluble domain of the EGFR (sEGFR) was coated on to ELISA plates. The unlabeled 124 or 1133 antibodies were then added across the plate in increasing concentrations.

B1: mAb806: murine IgG2b monoclonal antibody, clone 806, ATCC PTA-3858; VH SEQ ID NO:2, VL SEQ ID NO:4 (antibody, listed as Mus musculus, V domains shown)
VH: MRVLILLWLFTAFPGVLSDVQLQESGPSLVKPSQSLSLTCTVTGYSITSDFAWNWIRQFPGNKLEWMGYISYSGNTRYNPSLKSRISITRDTSKNQFFLQLNSVTIEDTATYYCVTAGRGFPYWGQGTLVTVSA
VL: MVSTAQFLAFLLLWFPGARCDILMTQSPSSMSVSLGDTVSITCHSSQDINSNIGWLQQRPGKSFKGLIYHGTNLDDEVPSRFSGSGSGADYSLTISSLESEDFADYYCVQYAQFPWTFGGGTKLEIKR
U87MG cells
  FACS staining: binding levels similar to the control antibody; also recorded: not with U87MG cells
U87MG.wtEGFR cells
  FACS staining: stained; also recorded: reacted weakly
HN5 and MDA-468 cells
  FACS staining: clearly stained
[1]; ELISA
  inhibition of binding to immobilized sEGFR by sEGFR in solution: unable to inhibit
[1]; ELISA, up to 10 μg/ml
  binding to immobilized wild-type sEGFR: dose-dependent and saturating binding curves
[1]; sEGFR heated 10 min at 95° C.
  inhibition of binding to immobilized sEGFR by denatured sEGFR in solution: able to inhibit
Denaturated sEGFR
  reactivity with denaturated sEGFR: strongly reactive
wtEGFR on A431 cells; A431 cells
  receptors (binding sites) per cell: 2.3×10^5
wtEGFR on A431 cells; Scatchard, average of three experiments
  affinity for the wtEGFR on A431 cells: 9.5e+07 M⁻¹
U87MG xenografts; established model
  effect on xenograft growth: no effect
U87MG xenografts; preventative model
  effect on xenograft growth: no effect
U87MG.wtEGFR xenografts
  mean tumor volume: 468±78.38 mm^3 and 500±80 mm^3
[2]; Colonic carcinoma
  positive tumors / tumors tested: 0/10
[2]; Head + neck cancer (sqcc)
  positive tumors / tumors tested: 7/11
[2]; Leiomyosarcoma
  positive tumors / tumors tested: 0/5
[2]; Liposarcoma
  positive tumors / tumors tested: 0/5*
[2]; Lung (sqcc, adeno, neuroend)
  positive tumors / tumors tested: 6/12
[2]; Malignant melanoma metastases
  positive tumors / tumors tested: 0/10
[2]; Mammary gland
  positive tumors / tumors tested: 1/10
[2]; Mfh Malignant fibrous histiocytoma
  positive tumors / tumors tested: 0/5*
[2]; Ovary (serous-papillary)
  positive tumors / tumors tested: 0/5
[2]; Seminoma
  positive tumors / tumors tested: 0/10
[2]; Synovial sarcoma
  positive tumors / tumors tested: 0/5*
[2]; Urinary bladder (tcc, sqcc, adeno)
  positive tumors / tumors tested: 3/10*
[2]; head and neck tumors
  tumors with positive staining: 64%
[2]; lung carcinomas
  tumors with positive staining: 50%
[2]; urinary tumors
  tumors with positive staining: 30%
[3]
  effect on survival: did not extend survival
[4]
  median survival: 23 days
DU145 xenografts
  mean tumor volume: 605 mm^3
DU145 cells
  binding by FACS: bind
[5]
  Binding of biotin-labeled 806: None
